The record followed here is patent publication US20070280950A1 (MEDICAL AND BIOLOGICAL LABORATORIES, published 2007).

Assay [1] concerns the target T1, human CD61 (human, UniProt P05106 27-788).
T1 construct: whole, on cells; Endogenous protein on human cells; In the immunoprecipitation it was solubilised from biotinylated THP-1 cell surfaces with NP-40 and came down together with CD51; also called integrin β3-subunit; integrin β3 chain
In words: flow cytometry on human cultured cells, 1 µg/ml antibody, FITC anti-mouse IgG secondary; Molt-4 and HUVEC also reactive; antigen later identified as CD61. As for the experimental part:
To identify the antigen of antibody #33, its reactivity to various human cultured cells was examined by flow cytometry. THP-1 activated macrophage-like cells, HPB-ALL, Jurkat, PM-1, Molt-4, KM-3, HL-60, K562, THP-1, U937, 293T, and HUVEC were used as these cells. The THP-1 activated macrophage-like cells were prepared by culturing and differentiating for two days the THP-1 human monocyte-like cell line in RPMI (Sigma) including Streptomycin/Penicillin (Gibco BRL) and 10% FCS (Equitech) into which phorbol ester (PMA) (Sigma) has been added to a final concentration of 5 ng/ml.
Blocking with 1 mg/ml human IgG (Sigma) in FCS was performed for the various human cultured cells (1.0×10⁵ cells) and cells were reacted in a PBS solution comprising 2% FCS (Equitech) antibody #33 at a final concentration of 1 μg/ml at 4° C. for 30 minutes. After washing twice with PBS comprising 2% FCS (Equitech), cells were further reacted with an FITC-labeled anti-mouse IgG secondary antibody (MBL) at 4° C. for 30 minutes. Samples were further washed twice with PBS containing 2% FCS (Equitech) and analyzed with a flow cytometer (ALTRA BC).
(Flow cytometry measures light scatter and fluorescence of single cells or particles in a stream.)

The target in assay [2] is T2, CD51 (human, UniProt P06756 31-1048).
T2 construct: whole, on cells; Co-precipitated with CD61 by antibody #33 from THP-1 cells; ruled out as the antigen by double staining of PBMCs; also called CD51 (112 kDa)
In words: flow cytometry, PBMCs double-stained with antibody #33 plus secondary antibody and PE-labeled CD51 antibody. The procedure: A flow cytometry was performed to determine which of CD51 and CD61, listed as candidate antigen molecules for antibody #33, is the antigen for antibody #33. After PBMCs were stained with antibody #33 and a secondary antibody, they were reacted with a PE-labeled CD51 antibody (BC) or a PE-labeled CD61 antibody (SZ21, BC) at 4° C. for 30 minutes and double-stained, after which flow cytometry was performed.

T2 sequence (P06756 31-1048): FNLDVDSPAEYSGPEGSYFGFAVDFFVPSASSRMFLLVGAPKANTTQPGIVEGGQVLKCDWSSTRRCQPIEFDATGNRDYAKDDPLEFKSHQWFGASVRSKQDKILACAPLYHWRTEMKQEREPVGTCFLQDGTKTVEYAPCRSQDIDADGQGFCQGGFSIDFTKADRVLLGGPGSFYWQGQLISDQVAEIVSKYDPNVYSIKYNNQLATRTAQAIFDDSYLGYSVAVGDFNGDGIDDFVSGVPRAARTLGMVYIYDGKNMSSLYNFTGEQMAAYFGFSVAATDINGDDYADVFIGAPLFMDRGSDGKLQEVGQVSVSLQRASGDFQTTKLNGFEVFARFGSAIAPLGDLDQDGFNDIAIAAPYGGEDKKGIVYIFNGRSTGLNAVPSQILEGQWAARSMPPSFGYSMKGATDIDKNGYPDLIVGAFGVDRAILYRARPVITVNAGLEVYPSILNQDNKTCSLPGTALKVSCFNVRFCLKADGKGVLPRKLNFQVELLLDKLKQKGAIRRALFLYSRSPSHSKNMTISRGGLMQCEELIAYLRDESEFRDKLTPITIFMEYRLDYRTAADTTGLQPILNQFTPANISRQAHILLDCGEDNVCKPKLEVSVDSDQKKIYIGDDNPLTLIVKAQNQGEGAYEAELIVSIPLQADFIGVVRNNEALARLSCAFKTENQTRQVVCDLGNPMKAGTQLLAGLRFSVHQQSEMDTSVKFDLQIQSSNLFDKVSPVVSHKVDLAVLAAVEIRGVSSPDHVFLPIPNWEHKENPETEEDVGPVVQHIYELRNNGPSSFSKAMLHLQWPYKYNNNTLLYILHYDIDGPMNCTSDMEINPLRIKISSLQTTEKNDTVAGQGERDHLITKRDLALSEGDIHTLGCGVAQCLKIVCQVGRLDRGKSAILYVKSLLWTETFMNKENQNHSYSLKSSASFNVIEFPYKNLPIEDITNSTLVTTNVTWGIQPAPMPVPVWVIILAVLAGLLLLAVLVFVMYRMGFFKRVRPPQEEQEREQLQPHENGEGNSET
T1 sequence (P05106 27-788): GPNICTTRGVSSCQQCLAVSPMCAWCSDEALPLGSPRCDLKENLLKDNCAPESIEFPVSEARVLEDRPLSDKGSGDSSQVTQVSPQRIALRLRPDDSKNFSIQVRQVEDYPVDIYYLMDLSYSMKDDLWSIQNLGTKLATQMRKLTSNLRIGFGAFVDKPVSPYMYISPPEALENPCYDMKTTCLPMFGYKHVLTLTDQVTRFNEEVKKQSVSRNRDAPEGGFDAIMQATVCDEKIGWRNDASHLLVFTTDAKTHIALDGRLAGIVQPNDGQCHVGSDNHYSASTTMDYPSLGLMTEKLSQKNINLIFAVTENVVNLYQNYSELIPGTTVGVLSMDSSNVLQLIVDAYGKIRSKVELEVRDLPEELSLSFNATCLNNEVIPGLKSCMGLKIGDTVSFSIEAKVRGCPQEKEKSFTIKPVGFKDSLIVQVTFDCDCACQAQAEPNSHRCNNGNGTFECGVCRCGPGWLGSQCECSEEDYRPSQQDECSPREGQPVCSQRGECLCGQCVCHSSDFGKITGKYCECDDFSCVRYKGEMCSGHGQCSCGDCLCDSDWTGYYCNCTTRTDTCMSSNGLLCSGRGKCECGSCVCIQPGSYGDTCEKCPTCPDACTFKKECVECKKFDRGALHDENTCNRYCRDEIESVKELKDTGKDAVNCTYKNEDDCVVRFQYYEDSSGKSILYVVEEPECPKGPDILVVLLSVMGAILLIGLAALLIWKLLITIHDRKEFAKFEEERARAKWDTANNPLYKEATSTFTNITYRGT

B1: antibody #33 (antibody, IgG2a, V domains shown)
VH: EVQLLQSGPELVKPGASMKISCKASGYSFTGYTMNWVKQSHGKNLEWIGLINPYSGVTTYNQRFKGKATLTVDKSSSTAYMELLSLTSEDSAVYYCATRGALGQAYYFDYWGQGTTLTVSS
VL: QIVLTQSPVIMSASPGERVTLTCSASSSVNYMHWYQQKSGTSPKRWIYDTSKLASGVPPRFSGSGFGTSYSLTITNMEAEDAATYYCQQWSSKPPTFGFGTKLELQR
notes: also called monoclonal antibody #33; mouse anti-human CD61 antibody
Turning to B1, the values for the binding result in assay [1] and in assay [2] were “binds” and “no binding”, respectively.
